Biological target: GFP-βRat CaMKII holoenzyme (rat) (UniProt P08413)
Test: single molecule TIRF microscopy

UniProt P08413, sequence (P08413 whole entry): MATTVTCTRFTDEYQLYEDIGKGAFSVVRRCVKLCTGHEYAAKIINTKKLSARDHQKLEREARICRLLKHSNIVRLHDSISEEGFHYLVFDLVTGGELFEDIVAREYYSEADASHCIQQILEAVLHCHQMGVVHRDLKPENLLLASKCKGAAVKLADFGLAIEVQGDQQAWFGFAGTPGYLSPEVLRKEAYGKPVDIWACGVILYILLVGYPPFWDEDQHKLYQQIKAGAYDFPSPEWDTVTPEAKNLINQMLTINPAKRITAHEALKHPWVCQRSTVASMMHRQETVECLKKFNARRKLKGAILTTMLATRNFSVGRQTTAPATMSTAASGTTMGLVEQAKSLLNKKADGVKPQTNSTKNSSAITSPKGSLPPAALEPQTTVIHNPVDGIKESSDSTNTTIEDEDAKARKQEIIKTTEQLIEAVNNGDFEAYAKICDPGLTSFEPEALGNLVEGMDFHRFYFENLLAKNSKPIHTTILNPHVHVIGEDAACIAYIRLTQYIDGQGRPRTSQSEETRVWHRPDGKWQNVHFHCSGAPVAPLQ

- Pearson's correlation of co-localization: 0.33
Substance: Cy3 conjugated G-actin (from UniProt P68135 1-377) (natural protein)

Source: doi:10.1101/308353
